Reference: patent US20050287608A1
Substitutions are numbered along the chain they refer to. In names and notes the source's numbering stands.

Assays:
[1] = molecular target: ubiquitinated proteins of yeast cells; assay: Flag purification from yeast cells, anti-Ub immunoblot
[2] = molecular target: ubiquitinated proteins of yeast cells; assay: Flag-Rad23 precipitation from yeast extracts, anti-Ub immunoblot, adjusted for the amount of Flag-Rad23 precipitated

B1: Flag-rad23^uba2 (yeast Rad23 L392A, amino-terminal Flag epitope) (protein, yeast (Saccharomyces cerevisiae), UniProt P32628 1-398, looked up, not shown: small tags and cut ends)
chain: MVSLTFKNFKKEKVPLDLEPSNTILETKTKLAQSISCEESQIKLIYSGKVLQDSKTVSECGLKDGDQVVFMVSQKKSTKTKVTEPPIAPESATTPGRENSTEASPSTDASAAPAATAPEGSQPQEEQTATTERTESASTPGFVVGTERNETIERIMEMGYQREEVERALRAAFNNPDRAVEYLLMGIPENLRQPEPQQQTAAAAEQPSTAATTAEQPAEDDLFAQAAQGGNASSGALGTTGGATDAAQGGPPGSIGLTVEDLLSLRQVVSGNPEALAPLLENISARYPQLREHIMANPEVFVSMLLEAVGDNMQDVMEGADDMVEGEDIEVTGEAAAAGLGQGEGEGSFQVDYTPEDDQAISRLCELGFERDLVIQVYFACDKNEEAAANIAFSDHAD
decrease of binding, against Flag-Rad23 [1]: 20%

B2: Flag-rad23^uba1uba2 (yeast Rad23 with mutations in both UBA domains, amino-terminal Flag epitope) (protein, yeast (Saccharomyces cerevisiae), UniProt P32628 1-398, looked up, not shown: small tags and cut ends)
chain: B1 chain with L183A
interaction remaining, compared to the wildtype protein [1]: 1%

B3: Flag-Rad23 (yeast Rad23 with an amino-terminal Flag epitope) (protein, yeast (Saccharomyces cerevisiae), UniProt P32628 1-398, looked up, not shown: small tags and cut ends)
chain: B1 chain with A392L
fold increase of the interaction after treatment with 4-NQO, against untreated cells [2]: 2 fold
